Data taken from US20140308291A1 (INTEGRATED BIOTHERAPEUTICS, published 2014).

Biological target: T1, wild-type gamma hemolysin B subunit (HlgB) (Staphylococcus aureus, UniProt Q2FVK1 27-325)
T1 construct: also called Gamma B; gamma hemolysin component B
T1 sequence: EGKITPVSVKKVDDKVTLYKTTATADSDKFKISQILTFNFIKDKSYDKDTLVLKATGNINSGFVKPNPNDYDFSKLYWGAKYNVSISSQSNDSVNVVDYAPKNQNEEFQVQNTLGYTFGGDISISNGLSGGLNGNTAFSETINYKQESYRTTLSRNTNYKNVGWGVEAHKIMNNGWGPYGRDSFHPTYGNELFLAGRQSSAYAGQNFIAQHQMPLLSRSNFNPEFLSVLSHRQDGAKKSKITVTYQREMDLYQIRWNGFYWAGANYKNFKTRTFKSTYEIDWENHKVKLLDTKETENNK
Assay: MPD-based oligomerization assay (40% MPD, 24 hours), SDS-PAGE without boiling

B1: LukS-PV triple mutant T28F/K97A/S209A (Mut9) (other)
chain: HHHHHHDNNIENIGDGAEVVKRTEDTSSDKWGVFQNIQFDFVKDKKYNKDALILKMQGFINSKTTYYNYKNTDHIKAMRWPFQYNIGLKTNDPNVDLINYLPANKIDSVNVSQTLGYNIGGNFNSGPSTGGNGSFNYSKTISYNQQNYISEVEHQNSKSVQWGIKANSFITSLGKMSGHDPNLFVGYKPYSQNPRDYFVPDNELPPLVHSGFNPAFIATVSHEKGSGDTSEFEITYGRNMDVTHATRRTTHYGNSYLEGSRIHNAFVNRNYTVKYEVNWKTHEIKVKGHN
Does B1 bind?
Result: no binding
